The record followed here is US20190321483A1 (Novartis, published 2019).

The target in assay [1] is T1, Cynomolgus monkey cKIT D1-5 (cynomolgus monkey, UniProt P10721 26-524 (human entry)).
T1 construct: also called cyno cKIT ECD
T1 chain: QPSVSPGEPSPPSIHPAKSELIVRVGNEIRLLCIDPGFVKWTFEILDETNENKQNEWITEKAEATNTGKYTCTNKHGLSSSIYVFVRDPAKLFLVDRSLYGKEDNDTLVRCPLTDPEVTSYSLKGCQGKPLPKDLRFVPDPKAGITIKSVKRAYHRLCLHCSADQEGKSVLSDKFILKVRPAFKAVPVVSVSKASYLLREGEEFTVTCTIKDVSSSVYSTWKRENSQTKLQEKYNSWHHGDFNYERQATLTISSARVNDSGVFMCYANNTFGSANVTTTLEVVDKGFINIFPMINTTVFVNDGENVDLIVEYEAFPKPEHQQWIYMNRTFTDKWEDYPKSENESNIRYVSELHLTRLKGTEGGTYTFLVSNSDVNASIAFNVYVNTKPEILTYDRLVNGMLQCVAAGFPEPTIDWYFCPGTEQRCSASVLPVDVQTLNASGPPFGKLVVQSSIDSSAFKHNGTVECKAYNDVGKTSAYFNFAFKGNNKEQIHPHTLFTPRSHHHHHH
Nature of the assay: 'in SET' by the column head; Example 4 describes Biacore SPR (antibody captured by anti-human Fc, cKIT ECD in solution). Background: In SPR one partner is held on a chip, and binding of the other changes the refractive index at the surface.

Assay [2] has as its target T2, Human cKIT D1-5 (extracellular domain) (human, UniProt P10721 26-524).
T2 construct: also called human cKIT ECD; full-length cKIT ECD
The assay is described as above.

Assay [3] has as its target T3, Rat cKIT D1-5, C-terminal mFc (rat).
T3 construct: also called rat cKIT-mFc
T3 chain: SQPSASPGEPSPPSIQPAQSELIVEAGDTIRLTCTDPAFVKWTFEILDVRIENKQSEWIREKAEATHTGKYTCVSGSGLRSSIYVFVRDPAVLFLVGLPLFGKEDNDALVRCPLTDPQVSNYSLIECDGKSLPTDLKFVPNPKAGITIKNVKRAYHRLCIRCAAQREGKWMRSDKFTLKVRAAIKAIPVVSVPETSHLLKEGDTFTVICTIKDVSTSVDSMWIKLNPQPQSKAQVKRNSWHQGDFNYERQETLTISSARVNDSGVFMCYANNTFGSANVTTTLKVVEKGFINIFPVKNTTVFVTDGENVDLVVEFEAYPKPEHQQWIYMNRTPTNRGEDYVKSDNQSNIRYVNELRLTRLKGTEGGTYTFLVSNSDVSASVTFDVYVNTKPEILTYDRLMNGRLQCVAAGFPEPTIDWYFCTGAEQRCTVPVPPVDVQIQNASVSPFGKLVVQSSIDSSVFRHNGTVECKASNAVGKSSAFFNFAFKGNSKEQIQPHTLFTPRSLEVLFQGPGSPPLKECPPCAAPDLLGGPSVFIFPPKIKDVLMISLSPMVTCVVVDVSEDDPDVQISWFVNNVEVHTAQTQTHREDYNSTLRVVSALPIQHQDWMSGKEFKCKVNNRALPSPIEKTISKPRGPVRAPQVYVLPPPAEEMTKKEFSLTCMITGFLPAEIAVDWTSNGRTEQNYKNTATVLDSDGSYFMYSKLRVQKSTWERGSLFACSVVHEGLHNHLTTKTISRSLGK
Nature of the assay: cross reactivity, Table 6 (Example 4: Biacore SPR, antibody captured, cKIT ECD in solution).

Assay [4] addresses T4, Mouse cKIT ECD, C-terminal 6x His (Sino Biological Inc, Catalog number 50530-M08H) (mouse, UniProt P05532 25-527).
T4 construct: extracellular domain
T4 sequence: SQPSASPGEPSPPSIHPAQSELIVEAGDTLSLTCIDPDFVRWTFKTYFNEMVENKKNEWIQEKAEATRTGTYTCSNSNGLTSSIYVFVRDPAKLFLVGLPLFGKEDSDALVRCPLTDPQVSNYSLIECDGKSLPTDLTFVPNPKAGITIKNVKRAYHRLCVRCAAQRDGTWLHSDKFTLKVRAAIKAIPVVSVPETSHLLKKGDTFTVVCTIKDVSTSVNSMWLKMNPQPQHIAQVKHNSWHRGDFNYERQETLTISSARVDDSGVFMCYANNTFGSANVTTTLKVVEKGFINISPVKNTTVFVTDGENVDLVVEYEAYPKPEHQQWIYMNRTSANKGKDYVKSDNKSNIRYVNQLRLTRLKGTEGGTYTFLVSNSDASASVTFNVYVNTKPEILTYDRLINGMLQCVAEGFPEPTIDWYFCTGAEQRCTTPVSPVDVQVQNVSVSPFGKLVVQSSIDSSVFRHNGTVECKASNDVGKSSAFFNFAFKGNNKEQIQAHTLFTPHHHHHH
Nature of the assay: cross reactivity, Table 6 (Example 4: Biacore SPR, antibody captured by anti-human Fc, cKIT ECD in solution).

The target of assay [5] is T3, Rat cKIT D1-5, C-terminal mFc. The assay is described as above.

Numbering of substitutions follows the chain as printed.

T2 sequence (P10721 other isoform, or with tags, fused parts or gaps): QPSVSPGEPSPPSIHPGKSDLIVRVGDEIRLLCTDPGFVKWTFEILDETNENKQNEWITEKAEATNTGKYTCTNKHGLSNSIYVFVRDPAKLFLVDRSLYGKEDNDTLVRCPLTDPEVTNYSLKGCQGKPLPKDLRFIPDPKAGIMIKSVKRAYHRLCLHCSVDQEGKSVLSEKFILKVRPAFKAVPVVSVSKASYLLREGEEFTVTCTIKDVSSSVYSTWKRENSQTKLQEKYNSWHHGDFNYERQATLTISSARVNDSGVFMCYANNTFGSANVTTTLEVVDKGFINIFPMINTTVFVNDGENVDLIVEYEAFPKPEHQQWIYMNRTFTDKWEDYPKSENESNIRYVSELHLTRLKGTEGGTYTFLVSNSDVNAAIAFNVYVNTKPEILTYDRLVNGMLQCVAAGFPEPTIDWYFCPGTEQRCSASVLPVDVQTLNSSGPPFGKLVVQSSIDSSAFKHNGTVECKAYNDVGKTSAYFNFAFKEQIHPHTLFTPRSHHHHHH

B1: Anti-cKIT Ab5 (antibody, human IgG1, lambda, V domains shown)
VH: QVQLVQSGAEVKKPGESLKISCKGSGYSFTNYWIAWVRQMPGKGLEWMGIIYPSNSYTLYSPSFQGQVTISADKSISTAYLQWSSLKASDTAMYYCARVPPGGSISYPAFDHWGQGTLVTVSS
VL: DIELTQPPSVSVSPGQTASITCSGDNIGSIYASWYQQKPGQAPVLVIYRDNKRPSGIPERFSGSNSGNTATLTISGTQAEDEADYYCSVTDMEQHSVFGGGTKLTVLG
notes: Full-length human IgG1, lambda light chain
In general, Kd refers to the equilibrium constant for the complex coming apart. As for B1, the values for the Kd in assay [1] and in assay [2] were 0.18 nM and 0.11 nM, respectively. Besides, the binding result in assay [3] is listed as “binds”.

B2: Anti-cKIT Ab1 (antibody, human IgG1, kappa, V domains shown)
VH: QVQLVQSGAEVKKPGSSVKVSCKASGGTFSSYAISWVRQAPGQGLEWMGVIFPAEGAPGYAQKFQGRVTITADESTSTAYMELSSLRSEDTAVYYCARGGYISDFDVWGQGTLVTVSS
VL: DIQMTQSPSSLSASVGDRVTITCRASQSISNYLAWYQQKPGKAPKLLIYDASSLQSGVPSRFSGSGSGTDFTLTISSLQPEDFATYYCQQYYYESITFGQGTKVEIKR
notes: Full-length human IgG1, kappa light chain; also called IgG control for J1
With B2, the equilibrium dissociation constant (Kd) in assay [1] came to 0.17 nM; in assay [2] it was 0.094 nM. In addition, the binding result in assay [4] and in assay [5] was “no binding” in each case.

B3: Anti-cKIT Ab2 (antibody, human IgG1, kappa, V domains shown)
VH: QVQLVQSGAEVKKPGSSVKVSCKASGGTFSSHALSWVRQAPGQGLEWMGGIIPSFGTADYAQKFQGRVTITADESTSTAYMELSSLRSEDTAVYYCARGLYDFDYWGQGTLVTVSS
VL: B2 VL with S28D, N31Q, Y32D, T85V, E94L, S95P, I96S
notes: Full-length human IgG1, kappa light chain; also called IgG control for J2
On to B3, for which the results for the Kd in assay [1] and in assay [2] were 0.01 nM and 0.007 nM, respectively. For the same molecule, the binding result in assay [4] and in assay [5] was “no binding” throughout.

B4: Anti-cKIT Ab3 (antibody, human IgG1, kappa, V domains shown)
VH: B2 VH with V50T, F52G, A54F, A57Q, G59R
VL: B2 VL
notes: Full-length human IgG1, kappa light chain; also called IgG control for J3
B4 gave a Kd in assay [1] of 0.052 nM. The binding result in assay [4] and in assay [5] was “no binding” in each case.

B5: Anti-cKIT Ab4 (antibody, human IgG1, lambda, V domains shown)
VH: QVQLQQSGPGLVKPSQTLSLTCAISGDSVSTNSAAWNWIRQSPSRGLEWLGRIYYRSQWLNDYAVSVKSRITINPDTSKNQFSLQLNSVTPEDTAVYYCARQLTYPYTVYHKALDVWGQGTLVTVSS
VL: DIELTQPPSVSVSPGQTASITCSGDNLGDQYVSWYQQKPGQAPVLVIYDDTDRPSGIPERFSGSNSGNTATLTISGTQAEDEADYYCQSTDSKSVVFGGGTKLTVLG
notes: Full-length human IgG1, lambda light chain; also called IgG control for J4
With B5, the Kd in assay [1] worked out at 0.14 nM; in assay [2], 2.4 nM. In addition, the binding result in assay [3] was “binds”.
